# Source: patent publication US20080139472A1, “UPREGULATING BDNF LEVELS TO MITIGATE MENTAL RETARDATION” (THE REGENTS OF THE UNIVERSITY OF CALIFORNIA, priority 2006, published 2008)
# “Also recorded” adds a separate entry of the source.
# B1: BDNF: purified recombinant (mature) BDNF, catalog #GF029; Millipore; single 14 kDa band under denaturing conditions (protein, UniProt P23560 19-247, looked up)
# Neurotrophic factor BDNF …: APMKEANIRGQGGLAYPGVRTHGTLESVNGPKAGSRGLTSLADTFEHVIEELLDEDQKVRPNEENNKDADLYTSRVMLSSQVPLEPPLLFLLEEYKNYLDAANMSMRVRRHSDPARRGELSVCDSISEWVTAADKKTAVDMSGGTVTVLEKVPVSKGQLKQYFYETKCNPMGYTKEGCRGIDKRHWNSQCRTTQSYVRALTMDSKKRIGWRFIRIDTSCVCTLTIKRGR
# B2: heat-inactivated BDNF: BDNF heat-inactivated by boiling for 5 min immediately before use; specificity control (protein, UniProt P23560 19-247, looked up)
# Neurotrophic factor BDNF …: APMKEANIRGQGGLAYPGVRTHGTLESVNGPKAGSRGLTSLADTFEHVIEELLDEDQKVRPNEENNKDADLYTSRVMLSSQVPLEPPLLFLLEEYKNYLDAANMSMRVRRHSDPARRGELSVCDSISEWVTAADKKTAVDMSGGTVTVLEKVPVSKGQLKQYFYETKCNPMGYTKEGCRGIDKRHWNSQCRTTQSYVRALTMDSKKRIGWRFIRIDTSCVCTLTIKRGR
# modifications: heat-inactivated
# notes: specificity control
# How the values were obtained:
# Assay type in all cases: cell-based, mouse
# NMDA receptor = NMDA receptor contribution to theta burst responses in hippocampal slices, estimated with APV
# Method: (§1) Transverse hippocampal slices (350 m) through the mid-septotemporal hippocampus were prepared with a vibratome (VT 1000 S; Leica, Bannockbum, Ill.) in ice-cold artificial CSF [ACSF; containing (in mM) 124 NaCl, 3 KCl, 1.25 KH2PO4, 3.4 CaCl2, 2.5 MgSO4, 26 NaHCO3, and 10 dextrose, pH 7.35) from young (2-3 months old) adult Fmr1-KO and wild-type (WT) mice (unless otherwise specified, chemicals were from Sigma, St. Louis, Mo.). […] Related to this, pharmacological results obtained with such slices accurately predict effects obtained with chronic recordings or biochemical assays from behaving animals (Staubli et al., 1994; Lauterbom et al., 2003), a point that is of importance to those aspects of the present work concerned with therapeutic strategies. All experiments were initiated between 9:00 and 11:00 A.M., and slices from Fmr1-KO and WT animals were randomized across two chambers and run simultaneously. Slices were maintained at 31±1° C. in an interface recording chamber with the slice surface exposed to warm, humidified 95% O2/5% CO2 and continuous ACSF perfused at a rate of 60-70 ml/hr. Slices equilibrated to the chamber for at least 1 h before recordings were initiated. […] Evoked responses were digitized (NacGather 2.0; Theta Burst, Irvine, Calif.) and analyzed for amplitude and fall slope; data are presented as a percentage of baseline. Responses to individual theta bursts were analyzed to determine the burst area; to evaluate treatment effects on theta train facilitation, responses to each burst in the theta train are presented as a percentage change from the area of the initial burst response. […] Statistical significance was assessed using either two-way repeated-measures ANOVA to compare values that were stable over time or Mann-Whitney Utest to compare groups expressing different decay rates (i.e., values not stable over time); statistical analyses were performed using SPSS version 15.0 (SPSS, Chicago, Ill.) Variance for physiology experiments is expressed as SEM.
# [1] = tested on: hippocampal slices from Fmr1-KO mice; assay: LTP (fEPSP slope) after theta burst stimulation in field CA1 of hippocampal slices from Fmr1-KO mice; details: for effect on TBS-induced increase in fEPSP slope (30-40 min post-TBS): compared with ACSF alone
# Method: Transverse hippocampal slices (350 m) through the mid-septotemporal hippocampus were prepared with a vibratome (VT 1000 S; Leica, Bannockbum, Ill.) in ice-cold artificial CSF [ACSF; containing (in mM) 124 NaCl, 3 KCl, 1.25 KH2PO4, 3.4 CaCl2, 2.5 MgSO4, 26 NaHCO3, and 10 dextrose, pH 7.35) from young (2-3 months old) adult Fmr1-KO and wild-type (WT) mice (unless otherwise specified, chemicals were from Sigma, St. Louis, Mo.). […] Related to this, pharmacological results obtained with such slices accurately predict effects obtained with chronic recordings or biochemical assays from behaving animals (Staubli et al., 1994; Lauterbom et al., 2003), a point that is of importance to those aspects of the present work concerned with therapeutic strategies. All experiments were initiated between 9:00 and 11:00 A.M., and slices from Fmr1-KO and WT animals were randomized across two chambers and run simultaneously. Slices were maintained at 31±1° C. in an interface recording chamber with the slice surface exposed to warm, humidified 95% O2/5% CO2 and continuous ACSF perfused at a rate of 60-70 ml/hr. Slices equilibrated to the chamber for at least 1 h before recordings were initiated. A single glass electrode (2 M NaCl) was placed within the mid proximodistal CA1b stratum radiatum and was used to record field EPSPs (fEPSPs) from the apical dendrites of CA1 pyramidal cells. Orthodromic stimulation was delivered at two sites (CA1a and CA1c) in the apical Schaffer collateral-commissural projections to provide convergent activation of CA1b pyramidal cells. Pulses were administered in an alternating manner to the two electrodes at 0.05 Hz by using a current that elicited a 50% maximal response. […] Input-output and paired-pulse facilitation assays were performed as described previously (Rex et al., 2005). Synaptic potentiation was induced with a train of 5 or 10 theta bursts (each containing four pulses at 100 Hz, with an interburst interval of 200 ms) Carson et al., 1986; Kramar and Lynch, 2003; Rex et al., 2005). Evoked responses were digitized (NacGather 2.0; Theta Burst, Irvine, Calif.) and analyzed for amplitude and fall slope; data are presented as a percentage of baseline. Responses to individual theta bursts were analyzed to determine the burst area; to evaluate treatment effects on theta train facilitation, responses to each burst in the theta train are presented as a percentage change from the area of the initial burst response. Unless otherwise stated, group size values presented in the figures represent number of slices tested. Generally two to three slices were tested from a given mouse, and no fewer than three mice were used in any group; for statistical analyses, each slice was considered an individual n. Statistical significance was assessed using either two-way repeated-measures ANOVA to compare values that were stable over time or Mann-Whitney Utest to compare groups expressing different decay rates (i.e., values not stable over time); statistical analyses were performed using SPSS version 15.0 (SPSS, Chicago, Ill.) Variance for physiology experiments is expressed as SEM.
# A recirculating perfusion system (oxygenated and heated as above) with a peristaltic pump (60 ml/hr; MasterFlex C/L; Cole-Parmer, Vernon Hills, Ill.) was used for experiments in which purified BDNF (catalog #GF029; Millipore, Temecula, Calif.) was administered to slices. The purity of the recombinant (mature) BDNF was confirmed using Western blot analyses: a single 14 kDa band was observed under denaturing conditions. Slices received BDNF for 30 min to 1 h before physiological recording. BDNF stock was prepared in ddH2O at a concentration of 50 ng/ml (this is equivalent to 1.85 nM based on the 27 kDa size of the dimer) and stored at −20° C. Control slices from the same animals received ACSF alone in parallel on a second recirculating interface chamber. […]
# [2] = tested on: hippocampal slices from WT mice; assay: LTP (fEPSP slope) after theta burst stimulation in field CA1 of hippocampal slices from wild-type mice
# Method: as §1, with “SEM. […]” for “SEM.”
# [3] = WT slices, pair of theta bursts, mean of 6 slices
# [4] = Fmr1-KO slices, five theta bursts
Molecule,"effect of APV on theta burst responses (NMDA receptor; Fmr1-KO slices, pair of theta bursts with and without APV)",effect of APV on the first burst response (NMDA receptor; [3]),effect of APV on the second burst response (NMDA receptor; [3]),LTP above baseline ([1]; Fmr1-KO slices treated with BDNF 15 ng/ml) [%],"slope of the fEPSP enhanced above baseline ([1]; Fmr1-KO slices, BDNF 2 nM from 30 min before theta burst stimulation, five theta bursts, 40-50 min post-TBS) [%]","degree of LTP (fEPSP slope, percent above baseline) ([1]; Fmr1-KO slices, BDNF 50 ng/ml bath-applied, five theta bursts, minutes 30-40 post-TBS, mean ±SEM) [%]","effect on input-output curves / baseline transmission (fEPSP amplitude) ([1]; Fmr1-KO slices, BDNF 50 ng/ml vs ACSF alone or heat-inactivated BDNF)","effect on facilitation of burst responses during theta trains ([1]; Fmr1-KO slices, BDNF 50 ng/ml vs ACSF and heat-inactivated BDNF)","restoration of LTP ([1]; Fmr1-KO slices, brief infusion of 50 ng/ml BDNF, threshold theta burst stimulation)","effect on TBS-induced increase in fEPSP slope (30-40 min post-TBS) [1, 4]","potentiation (fEPSP slope, percent above baseline) ([2]; BDNF 50 ng/ml bath-applied, five theta bursts, minutes 30-40 post-TBS, mean ±SEM) [%]",effect on facilitation of burst responses during theta trains ([2]; BDNF 50 ng/ml vs ACSF),effect on input-output curves ([2]; BDNF 50 ng/ml vs ACSF alone)
N[C@@H](CCCP(=O)(O)O)C(=O)O [APV],"marked, and reversible, depression",slight reduction in the half-width of the fourth fEPSP,reduced the size of fEPSPs 2 through 4,,,,,,,,,,
B1,,,,> 40,44,42.1±8.6,no effect; also recorded: did not alter,did not measurably affect,fully restored LTP,enhanced,51.3±8.6,did not measurably affect,did not alter
B2,,,,,,,,,,no effect,,,
